The target of data set [1] is T1, Spen RRM domains (Spen RRMs) (UniProt Q96T58 335-620).
T1 sequence: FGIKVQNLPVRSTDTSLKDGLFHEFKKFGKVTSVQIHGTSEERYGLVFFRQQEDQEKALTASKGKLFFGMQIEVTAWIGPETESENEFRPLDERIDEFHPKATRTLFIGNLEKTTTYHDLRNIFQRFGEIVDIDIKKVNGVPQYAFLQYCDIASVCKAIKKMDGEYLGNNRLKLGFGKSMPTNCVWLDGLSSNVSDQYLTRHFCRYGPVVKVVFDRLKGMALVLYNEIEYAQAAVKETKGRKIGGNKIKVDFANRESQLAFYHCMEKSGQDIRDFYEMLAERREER
Kind of data set: EMSA.

Data set [2] has as its target T1, Spen RRM domains (Spen RRMs). Kind of data set: EMSA. The source holds these as a separate data set. A general note: Mobility shift assays separate free from complexed probe on a gel.

Like-named read-outs stand apart in the source and are kept apart here.

B1: XCR-XC dimer (Xist A-repeat dimer), synthetic (structured_RNA)
RNA: UUGCCCAUCGGGGCCUCGGAUACCUGCUUUAAAUUGCCCAUCGGGGCCUCGGAUACCUGCUUUAC
For the molecule B1, the binding result in data set [1] is “binds”.

B2: H12-H13 SRA, synthetic (structured_RNA)
RNA: GCAGGUAUGUGAUGACAUCAGCCGACGCCUGGCACUGCUGCAGGAACAGUGGGCUGGAGGAAAGUUGUCAAUACCUGU
B2: the binding result in data set [2] is listed as “binds”.

The record behind these values is paper PMC4530576.
